Assay results reported in US7576071B2, “Antithrombotic compound” (sanofi-aventis, priority 2004, dated 2009).
Structures can show the parent of a compound that is named as a salt.

Legend:
Bovine factor Xa = experiment: Determination of anti-factor Xa activity in buffer (microtiter plate method, AT-III mediated); format: biochemical; settings: Kabi buffer, human AT-III
Excerpt: II. Determination of Anti-Factor Xa Activity in Buffer
(Microtiter Plate Method)
Anticoagulants can inhibit Xa directly or, like heparin, by potentiating the inhibitory activity of AT-III. Anti-Xa activity can be assessed by determination of the rate of hydrolysis of the chromogenic substrate S-2222 in the presence of AT-III. This assay is used to determine anti-Xa activity of heparinoid preparations in Kabi buffer.
Test medium: Kabi buffer.
Ref. compound: International standard heparin (11.4 anti-Xa U/mg).
Composition of the buffer: NaCl 10.17 g (174 mmol); edetate disodium dihydrate 3.26 g (9.6 mmol); tromethamine (Tris) 6.11 g (50.4 mmol); made up to 1 L with ultrapure H2O *. The pH of the solution is adjusted to 7.4 with hydrochloric acid (0.10 mol/L)
Bovine factor Xa (Kabi Diagnostica, Stockholm, Sweden) is dissolved in Kabi buffer to give a solution containing 1.5 U/mL (0.75 nKat/mL). • 3. S-2222 solution
S-2222 (Kabi Diagnostica) is dissolved in ultrapure H2O to give a solution containing 0.375 mg/mL (0.5 mmol/L). • 4. AT-III solution
Human AT-III (Kabi Diagnostica) is dissolved in Kabi buffer to give a solution containing 0.25 U/mL. A fresh solution has to be prepared daily. • 5. Standard solution of the calibration sample
Standard heparin is dissolved in Kabi buffer to give a standard solution containing approx. 0.25 anti-Xa U/mL.
Each preparation is dissolved in ultrapure H2O and diluted with Kabi buffer to the required concentrations in the range of 0.02-0.2 anti-Xa U/mL
Each test sample (0.05 mL) is pipetted into a well of a microtiter plate at RT. AT-III solution (0.05 mL) is added to each sample and the plate is shaken using a Vari-shaker.
An aliquot of Xa solution (0.05 mL) is pipetted into each well 10 min following addition of AT-III solution and the plate is shaken again. Exactly 2 min following addition of Xa solution, 0.1 mL S-2222 solution is pipetted into each well and the plate is shaken again. For all additions a 12-channel pipette is used.
The remaining amount of Xa catalyses the hydrolysis of S-2222, the rate of which is measured photometrically following incubation periods of 2 and 22 min respectively at RT. The absorbance of each sample is measured at 405 nm using a Reader Microelisa, model 310C (Organon Teknika, Oss, The Netherlands) and the increase in absorbance (ΔOD) is calculated. Each test sample is determined in duplicate. With every 10 samples, a blank (0.05 mL Kabi buffer) is included.
From an aliquot of the standard solution of the calibration sample a range of dilutions is made (dilution factor 1,3 for heparin samples). The resulting standard samples (approx. 15 samples) should contain between 0.01-0.25 anti-Xa U/mL. […]
For each sample the mean anti-Xa activity in U/mL is determined using the calibration curve. […]

[1] = Pharmacokinetics (half-life) in guinea pigs; settings: 0.5 μmol/kg i.v., ex-vivo plasma anti-Xa activity, compared to reference GpIIb/IIIa antagonists (XVII, XIX, XX by LC-MS/MS)
Protocol: Guinea pigs (DH) were administered 0.5 μmol/kg (i.v.) of anticoagulant. The half-life of the pentasaccharide XXII, the “parent” of the oligosaccharide part of the conjugates, and conjugate VIII were indirectly assigned by ex-vivo determination of plasma anti-Xa activity at specific time-intervals as described above. The half-lives of the reference GPIIb/IIIa antagonists XVII, XIX and XX (see Scheme 10) were determined by measuring the plasma concentration at specific time-intervals using LC-MS/MS.

CO[C@H]1O[C@H](COS(=O)(=O)O)[C@@H](O[C@@H]2O[C@@H](C(=O)O)[C@@H](O[C@H]3O[C@H](COS(=O)(=O)O)[C@@H](O[C@@H]4O[C@H](C(=O)O)[C@@H](O[C@H]5O[C@H](COS(=O)(=O)O)[C@@H](OCCOCCOCCOCCNC(=O)COCCOCCOCCOCCNC(=O)[C@H](CC(=O)O)NC(=O)[C@@H]6CCCN(C(=O)CCC7CCNCC7)C6)[C@H](OC)[C@H]5OC)[C@H](OC)[C@H]4OC)[C@H](OS(=O)(=O)O)[C@H]3OS(=O)(=O)O)[C@H](OC)[C@H]2OC)[C@H](OC)[C@H]1OS(=O)(=O)O [Compound VIII, sodium salt]
Anti-Xa activity (Bovine factor Xa; substrate S-2222, calibrated against standard heparin): 605 ± 43 U/mg
Anti-Xa activity (Bovine factor Xa; substrate S-2222, per nmol (from U/mg and Mw)): 1.45 U/nmol
half life [1]: significantly prolonged
